From patent US20250163155A1 (Bristol-Myers Squibb, published 2025)

Target: T1, cynomolgus LAG-3 (cynomolgus monkey)
T1 construct: whole, on cells; also called cynomolgus LAG-3 on transfected CHO cells
Experiment: flow cytometry on transfected CHO cells and activated cynomolgus T cells

B1: BMS-986016 (antibody, human IgG4 S228P, kappa, V domains shown)
VH: QVQLQQWGAGLLKPSETLSLTCAVYGGSFSDYYWNWIRQPPGKGLEWIGEINHRGSTNSNPSLKSRVTLSLDTSKNQFSLKLRSVTAADTAVYYCAFGYSDYEYNWFDPWGQGTLVTVSS
VL: EIVLTQSPATLSLSPGERATLSCRASQSISSYLAWYQQKPGQAPRLLIYDASNRATGIPARFSGSGSGTDFTLTISSLEPEDFAVYYCQQRSNWPLTFGQGTNLEIKR
notes: also called anti-LAG-3 antibody
B1 gave an EC50 of 21.5 to 34.3 nM.
